Square brackets hold non-standard residues; d marks the D form. Ends that are not written are not given here. Peptide text beside a SMILES is read from it. * marks the point of attachment. FITC = O=C1OC2(c3ccc(O)cc3Oc3cc(O)ccc32)c2ccc(NC(=S)*)cc21; Biotin = O=C1N[C@H]2[C@H](CS[C@H]2CCCCC(=O)*)N1; pT = C[C@@H](OP(=O)(O)O)[C@H](N)C(=O)O; Ahx = NCCCCCC(=O)O
B1: FITC-Ahx-GSGPTIEEVD (peptide)
peptide: {FITC-Ahx}-GSGPTIEEVD
notes: C-terminal tail of human HSP70 (HSPA1A); also called EEVD (fluorescence polarization tracer); unphosphorylated EEVD peptide; source: synthetic peptide (Lifetein/Genscript)

Tests used:
[1] = target: T1, full-length wild-type CHIP (Homo sapiens, UniProt Q9UNE7); assay: Fluorescence polarization, full-length wild-type CHIP with HSP70 C-terminal peptide; conditions: Fig. 4c binding curve, value in picture; FITC-Ahx-labelled peptide 20 nM, room temperature, 30 min; n = 3 independent experiments
T1 construct: Recombinant CHIP-TPR (residues 21-154) and full-length CHIP proteins were expressed and purified as described; HIS; made in house
T1 sequence (Q9UNE7 1-303): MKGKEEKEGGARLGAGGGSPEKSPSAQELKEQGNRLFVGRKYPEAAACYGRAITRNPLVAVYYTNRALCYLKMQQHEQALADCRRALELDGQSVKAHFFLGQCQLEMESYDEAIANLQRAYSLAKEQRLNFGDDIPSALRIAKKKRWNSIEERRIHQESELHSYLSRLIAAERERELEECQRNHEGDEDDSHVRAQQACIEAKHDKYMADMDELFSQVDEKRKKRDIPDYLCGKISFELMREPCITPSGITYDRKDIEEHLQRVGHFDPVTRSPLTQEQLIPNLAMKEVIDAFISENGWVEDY
Description: (§1) Plasmids were propagated in DH5α Escherichia coli and purified using Qiagen Miniprep or Bio-Rad Midiprep kits. Mutations were introduced with Q5 (NEB) or QuikChange II XL (Agilent) kits and verified by Sanger sequencing. Peptides (Lifetein/Genscript) included unphosphorylated […] (EEVD), phosphorylated GP(pT)IEEVD (pEEVD), biotin-[…] (biotin-EEVD), biotin-GSGSGP(pT)IEEVD (biotin-pEEVD), and FITC-Ahx-[…] or FITC-Ahx-GSGP(pT)IEEVD for polarization assays. Recombinant CHIP-TPR (residues 21-154) and full-length CHIP proteins were expressed and purified as described.[8], [29]
(§2) The N-terminally labeled peptides were loaded into PCR reaction tubes at 2X (40 nM), resulting in a final concentration of 20 nM. Recombinant CHIP constructs were added to the tubes at the indicated concentrations. The reaction was left at room temperature for 30 min before loading into black, low-volume, round-bottom 384-well plates (Greiner Bio-One) with inter-run triplicates at 18 μl each and subsequently repeated independently 2 more times. […] The polarization readings were normalized to the dilution buffer. Gain adjustment was made to the tracer HSP70 peptides alone.

full-length CHIP-G132N = target: T2, full-length CHIP-G132N (Homo sapiens, UniProt Q9UNE7, G132N); assay: Fluorescence polarization, full-length CHIP-G132N; conditions: Fig. 4d binding curve, value in picture; FITC-Ahx-labelled peptide 20 nM, room temperature, 30 min; n = 3 independent experiments
T2 construct: HIS; made in house
T2 sequence (Q9UNE7 1-303 G132N): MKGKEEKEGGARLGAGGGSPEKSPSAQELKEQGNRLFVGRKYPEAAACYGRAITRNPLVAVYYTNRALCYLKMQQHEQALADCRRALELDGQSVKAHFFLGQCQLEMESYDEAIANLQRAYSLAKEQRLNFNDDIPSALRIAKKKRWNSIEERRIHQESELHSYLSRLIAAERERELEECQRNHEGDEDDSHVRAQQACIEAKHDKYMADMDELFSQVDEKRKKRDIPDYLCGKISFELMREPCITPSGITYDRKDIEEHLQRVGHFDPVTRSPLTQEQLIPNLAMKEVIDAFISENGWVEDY
Description: as §1, §2

CHIP = CHIP (UniProt Q9UNE7); assay: fluorescence polarization titration; conditions: reference: unphosphorylated EEVD peptide; sites T636
proteasome = assay: Proteasome-dependent turnover of HSP70 T636 variants; type: cell-based; conditions: relative to WT and T636A, Figure S3
[2] = target: T3, CHIP TPR (fluorescence polarization construct) (human); assay: FP
T3 chain: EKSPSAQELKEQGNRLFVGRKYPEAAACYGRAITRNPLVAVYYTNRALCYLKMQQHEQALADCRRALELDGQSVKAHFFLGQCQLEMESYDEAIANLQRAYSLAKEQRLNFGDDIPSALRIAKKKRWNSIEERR

[3] = target: T4, full-length CHIP (wild-type) (human, UniProt Q9UNE7 1-303); assay: fluorescence polarisation; FITC-labelled peptide at 20 nM, recombinant CHIP constructs added at varied concentrations, 30 min at room temperature; one-site total binding fit, normalised to % of maximum binding; conditions: both partners purified
T4 construct: CHIP (STUB1), full length, wild-type; Vector CHIP of the JCS lab; also called CHIP-WT; STUB1
T4 sequence (looked up): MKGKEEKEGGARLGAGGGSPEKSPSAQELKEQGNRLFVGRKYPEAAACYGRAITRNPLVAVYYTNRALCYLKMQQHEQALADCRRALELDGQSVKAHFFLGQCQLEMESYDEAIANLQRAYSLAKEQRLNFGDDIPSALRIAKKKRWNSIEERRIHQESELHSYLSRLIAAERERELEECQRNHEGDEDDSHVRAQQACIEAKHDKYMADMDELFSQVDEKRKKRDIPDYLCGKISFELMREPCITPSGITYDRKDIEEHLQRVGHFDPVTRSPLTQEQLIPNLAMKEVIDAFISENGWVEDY

FITC-Ahx-GSGPTIEEVD = target: B1; assay: as above; conditions: both partners purified
[4] = target: T5, human CHIP-TPR (residues 21-154) (human, UniProt Q9UNE7 21-154); assay: BLI; BLItz, biotinylated peptide loaded on streptavidin sensors, TPR construct at 1 to 25 uM in solution; 20 mM HEPES, 150 mM NaCl, 5 mM beta-mercaptoethanol, pH 7.2; Kd = koff/kon from individual fits; conditions: both partners purified
T5 construct: also called wild-type CHIP-TPR
T5 sequence (looked up): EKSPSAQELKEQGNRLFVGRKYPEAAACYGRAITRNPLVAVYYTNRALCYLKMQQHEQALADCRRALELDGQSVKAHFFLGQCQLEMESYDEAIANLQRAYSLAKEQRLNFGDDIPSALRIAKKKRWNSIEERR

G132N CHIP-TPR = target: T6, G132N CHIP-TPR (human, UniProt Q9UNE7 21-154, G132N); assay: as above; conditions: both partners purified
T6 construct: CHIP (STUB1), human, TPR domain with G132N; also called G132N variant
T6 sequence (looked up): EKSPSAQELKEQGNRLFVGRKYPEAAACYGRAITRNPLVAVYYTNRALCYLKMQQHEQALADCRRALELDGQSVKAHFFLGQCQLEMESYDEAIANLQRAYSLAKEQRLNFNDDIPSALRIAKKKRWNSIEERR

HSP70 [5] = assay: NanoBiT, transient cellular HSP70-CHIP interaction; type: cell-based; conditions: Figure S1
HSP70 [6] = assay: Co-immunoprecipitation, steady-state HSP70-CHIP interaction; type: cell-based; conditions: phosphomimetic HSP70, Figure S1
HSP70 [7] = assay: In vitro HSP70 ubiquitination; type: biochemical; conditions: Figure S2

CC[C@H](C)[C@H](NC(=O)[C@@H](NC(=O)[C@@H]1CCCN1C(=O)CN)[C@@H](C)OP(=O)(O)O)C(=O)N[C@@H](CCC(=O)O)C(=O)N[C@@H](CCC(=O)O)C(=O)N[C@H](C(=O)N[C@@H](CC(=O)O)C(=O)O)C(C)C [pEEVD, GP(pT)IEEVD] (H-GP[pT]IEEVD-OH)
Kd [1]: 46 nM
Kd (full-length CHIP-G132N): 96 nM

HSP70 C-terminal tail (from UniProt P0DMV8) pT636 pEEVD peptide
fold change (CHIP): weaker

T636D phosphomimetic: HSP70 T636D phosphomimetic variant
turnover (proteasome): accelerated proteasome-dependent turnover

CC[C@H](C)[C@H](NC(=O)[C@@H](NC(=O)[C@@H]1CCCN1C(=O)CN)[C@@H](C)O)C(=O)N[C@@H](CCC(=O)O)C(=O)N[C@@H](CCC(=O)O)C(=O)N[C@H](C(=O)N[C@@H](CC(=O)O)C(=O)O)C(C)C [EEVD] (H-GPTIEEVD-OH)
Kd [1]: 6.5 nM
Kd (full-length CHIP-G132N): 9.2 nM

B1
Kd [2]: 42000 nM
Kd [3]: 7 nM

B2: CHIP TPR-CC (domain or fragment)
chain: MKGKEEKEGGARLGAGGGSPEKSPSAQELKEQGNRLFVGRKYPEAAACYGRAITRNPLVAVYYTNRALCYLKMQQHEQALADCRRALELDGQSVKAHFFLGQCQLEMESYDEAIANLQRAYSLAKEQRLNFGDDIPSALRIAKKKRWNSIEERRIHQESELHSYLSRLIAAERERELEECQRNHEGDEDDSHVRAQQACIEAKHDKYMADMDELFSQVDEKRKKR
Kd (FITC-Ahx-GSGPTIEEVD): 42 nM

B3: biotin-GSGSGP(pT)IEEVD (peptide)
peptide: Biotin-GSGSGP[pT]IEEVD
notes: C-terminal tail of human HSP70 (HSPA1A), Thr636 phosphorylated; also called biotin-pEEVD; biotinylated pEEVD peptide; source: synthetic peptide (Lifetein/Genscript)
Kd [4]: 5230 nM
Kd (G132N CHIP-TPR): 1250 nM

B4: biotin-GSGSGPTIEEVD (peptide)
peptide: Biotin-GSGSGPTIEEVD
notes: C-terminal tail of human HSP70 (HSPA1A); also called biotin-EEVD; biotinylated EEVD peptide; source: synthetic peptide (Lifetein/Genscript)
Kd [4]: 592 nM
Kd (G132N CHIP-TPR): 597 nM

B5: CHIP TPR (fluorescence polarization construct) (domain or fragment)
chain: EKSPSAQELKEQGNRLFVGRKYPEAAACYGRAITRNPLVAVYYTNRALCYLKMQQHEQALADCRRALELDGQSVKAHFFLGQCQLEMESYDEAIANLQRAYSLAKEQRLNFGDDIPSALRIAKKKRWNSIEERR
Kd (FITC-Ahx-GSGPTIEEVD): 28 nM

B6: G132N: structure-guided G132N substitution variant of CHIP (protein)
chain: MKGKEEKEGGARLGAGGGSPEKSPSAQELKEQGNRLFVGRKYPEAAACYGRAITRNPLVAVYYTNRALCYLKMQQHEQALADCRRALELDGQSVKAHFFLGQCQLEMESYDEAIANLQRAYSLAKEQRLNFNDDIPSALRIAKKKRWNSIEERRIHQESELHSYLSRLIAAERERELEECQRNHEGDEDDSHVRAQQACIEAKHDKYMADMDELFSQVDEKRKKRDIPDYLCGKISFELMREPCITPSGITYDRKDIEEHLQRVGHFDPVTRSPLTQEQLIPNLAMKEVIDAFISENGWVEDY
modifications: left off: HIS, end not stated, state not stated
notes: structure-guided G132N substitution variant of CHIP
binding to the non-mimetic HSP70 (HSP70 [5]): overall reducing binding
rescue of interaction in co-immunoprecipitation (HSP70 [6]): no rescue
HSP70 ubiquitination activity (HSP70 [7]): retained HSP70 ubiquitination activity

Source: publication PMC13090976 (Cell Stress & Chaperones, 2026)
